In the supplement of paper PMC12764529:
± gives the half width of the 95% confidence interval.

Experiments:
[1] = folding stability dG unfold from trypsin proteolysis; higher = more stable
Method in brief: (§1)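 How resistant each design was to proteolysis was captured as K50, inferred by Bayesian fitting of sequencing counts. Unfolding free energy was then derived relative to a sequence-predicted unfolded-state K50 and a shared folded-state K50, per protease or combined. Digestion used trypsin and chymotrypsin at 11 threefold-diluted concentrations plus a no-protease condition, on mini-proteins under 80 residues without cysteine in a PA-tagged cDNA display construct. Designs were kept only when AlphaFold2 dimer inter-PAE was above 15.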

[2] = folding stability dG unfold from chymotrypsin proteolysis; higher = more stable
Method in brief: as §1

[3] = folding stability dG unfold (combined trypsin and chymotrypsin); higher = more stable
Method in brief: as §1

Row | Sequence | folding stability dG unfold [1] [kJ/mol] | folding stability dG unfold [2] [kJ/mol] | folding stability dG unfold [3] [kJ/mol]
1 | SAGGMTVTVKVKPDEYVIVEIENPVLDSTLTYVVPFNSPMTVTLPLPPDYKVKKITVVSPKKVSKELLSAGG [r13_119_JUSTAS] | 5.12 ± 0.0544 | 8.57 ± 0.247 | 7.45 ± 0.247
2 | SAGGSAGGSAGGMPVLVNIELPIPGTNETLTLEVEAEGPGGEEVEKEAQETAEKVLEESSAGGSAGGSAGGS [r10_863_JUSTAS] | 6.61 ± 0.418 | 7.51 ± 0.285 | 7.18 ± 0.46
3 | SAGLGLEKAKKLAEKIAETLKKELEKELGIPADQIKVEAKVEKLPDGSYKITVKINLKDIPIEKVFYVDSAG [r14_226_TrMRF] | 14.7 ± 2.18 | 12.1 ± 0.289 | 12 ± 1.3
4 | SMPKIEVKIEYDEETGEITVEIRVPETEEEALEALRKLAEEAGLEVEVEEVEIEEVDGELVIRVKVRIKPSA [r9_164_TrROS_Hall] | 14.9 ± 0.879 | 10.2 ± 0.669 | 12.9 ± 1.17
5 | SAGGDWVPIEFTIMVPAEELQEGKPPTAEDIVEELFPPNFNVDIDVQQFPGNGYVYATVKIWVPPGMPSAGG [r13_862_TrROS] | 9.86 ± 0.795 | 10.3 ± 0.41 | 10 ± 0.879
6 | SAGGSAGGSMTVTVRRVYFPPNLAEGMTVEELRKKLGVPDLPVLVVDVEVTLTPEELEALLKESAGGSAGGS [r12_178_TrMRF] | 5.81 ± 0.172 | 9.26 ± 0.151 | 8.22 ± 0.209
7 | SAGGSAGGVKIEVETRTETLPDGSTRTVMRVKIELPAPPPPPPPPTRTVTETTEDGETRTTTVRSAGGSAGG [r6_778_TrROS_Hall] | 2.62 ± 0.544 | 8.64 ± 0.276 | 6.87 ± 0.711
8 | SAGMPVTVTSTSDPENGSTTVPRTHPTGPVVTVTITKLPPGELRVTVDAGTTVTLYTLPPDALTTFTTPSAG [r5_14_JUSTAS] | 2.13 ± 0.669 | 0.542 ± 0.753 | 1.42 ± 0.46
9 | SAGGSAGGMKTTTYTFPGTLEEAKALAEELVAALPPHAKEVTVEVTPDPATGTVTVTITVKELASAGGSAGG [r6_164_JUSTAS] | 13.3 ± 0.795 | 15.2 ± 0.268 | 14.5 ± 0.544
10 | SAGMTVKVKVEVKTKYFDKNGKLVKEEKKTVEVEVEVKIVIELKPEDLEKAKELAEKLGIEITEEELKSAGG [r19_315_TrROS_Hall] | 5.27 ± 1.21 | 7.79 ± 0.711 | 7.28 ± 2.34
11 | SAEKKVLVKVKIEVFNEDGELVEELELEVEMSAEEVKKKIKEELLKLLKEKYPDKPLTIKVEVEVKELPSAG [r14_570_TrROS_Hall] | 18.2 ± 3.1 | 15.1 ± 0.795 | 15.3 ± 0.962
12 | MTIVIDTPVPPEEAEALLRELAEELGYSPELMEVEERVFSEGEDGRPYVTLTVRLPGLGVTITLRLPPDAAS [r1_21_JUSTAS] | 15.1 ± 0.46 | 15.4 ± 0.0837 | 15.3 ± 0.172
13 | SAGNYYRVEVENPSEGKKVTIHIFPNGMINVEHDGGEHWIMIPPDNPDQIEEIASELAPNGYEVDIEPWSAG [r5_791_TrROS] | 2.48 ± 0.46 | 3.58 ± 1.13 | 3.24 ± 0.753
14 | SAGPTVRIRFAGEEEIEVEVGEELEIRLPDGSVVRIRVKPDGTVTVTRPDGSEVELEDVDEVEIEVFPASAG [r5_869_TrROS_Hall] | 13.8 ± 0.544 | 13.4 ± 0.318 | 14.2 ± 0.837
15 | SAGGSAGGSAGGPPGAVERGYLVVRFRVYRPEPAEPVGELTVYVRVPPPEPEEDGSFRFHSAGGSAGGSAGG [r7_959_TrMRF] | 8.3 ± 0.105 | 10 ± 0.285 | 9.39 ± 0.36
16 | SAGGSAGGSAGTLTLRVQLFDEDGRLVAEREVELEVELPPPPPVELEFDEETRELRRRRLSAGGSAGGSAGG [r17_348_TrROS_Hall] | 4.71 ± 0.753 | 3.39 ± 0.92 | 4.04 ± 1
17 | SAGGKTVVIELDGARIEFNEDDGTITVWMPREELEALKAALPPGAEIVEVRERPDGWVQVTIRITPPSAGGS [r8_415_TrROS_Hall] | 13 ± 0.586 | 17.6 ± 0.628 | 16.3 ± 0.418
